# “And” between values parts separate entries of the source, which are not always exact repeats. Equal entries are not always repeated.
# B1: ZO-1 PDZ2 domain (residues 184-264) (domain or fragment)
# chain: PTKVTLVKSRKNEEYGLRLASHIFVKEISQDSLAARDGNIQEGDVVLKINGTVTENMSLTDAKTLIERSKGKLKMVVQRDE
# Experiments:
# [1] = target: MLLT4 PDZ domain (residues 961-1056) (human) (UniProt P55196); test: MST
# [2] = target: the molecule itself; test: AUC
# [3] = target: T1, MPP5 PDZ domain (residues 238-336) (human, UniProt Q8N3R9 238-336); test: MST
# T1 sequence: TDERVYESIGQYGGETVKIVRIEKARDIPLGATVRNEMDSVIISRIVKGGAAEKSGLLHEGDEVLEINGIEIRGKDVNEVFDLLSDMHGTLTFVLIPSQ
# [4] = target: T2, LNX2 PDZ2 domain (residues 334-426) (human, UniProt Q8N448 334-426); test: MST
# T2 sequence: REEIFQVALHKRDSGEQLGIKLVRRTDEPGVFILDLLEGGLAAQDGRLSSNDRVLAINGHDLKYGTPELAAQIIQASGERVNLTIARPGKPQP
# [5] = target: PARD3 PDZ3 domain (residues 582-685) (human, UniProt Q8TEW0 582-685); test: MST
# Chain of PARD3 PDZ3 domain (residues 582-685) (Q8TEW0 582-685): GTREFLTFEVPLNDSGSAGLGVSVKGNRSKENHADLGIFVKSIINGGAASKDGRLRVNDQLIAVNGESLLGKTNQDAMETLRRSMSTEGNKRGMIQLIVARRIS
# [6] = target: B1; test: MST
molecule,measurement,setting,value
"C-terminal SARS-CoV-2-E PBM peptide (12-mer, original strain)",Kd,[1],569 µM
B1,stoichiometry N,[2],2 and ~4
"NLNSSRVPDLLV [C-terminal SARS-CoV-2-E PBM peptide (12-mer, original strain)]",Kd,[3],30 µM
same,Kd,[4],289 µM
same,Kd,[5],341 µM
same,Kd,[6],15 µM
